{"source": "patent US20070141059A1", "about": "“Use of cathepsin s inhibitors for treating an immune response caused by administration of a small molecule therapeutic or biologic” (AXYS Pharmaceuticals, Inc., priority 2003, published 2007)", "origin": "cited, not measured here", "molecules": {"B1": {"name": "Betaseron®: biologic; biological agent that induces the production of specific immunoglobulins (protein, UniProt P01574 22-187, looked up, variant C17S)", "Interferon beta": "MSYNLLGFLQRSSNFQSQKLLWQLNGRLEYCLKDRMNFDIPEEIKQLQQFQKEDAALTIYEMLQNIFAIFRQDSSSTGWNETIVENLLANVYHQINHLKTVLEEKLEKEDFTRGKLMSSLHLKRYYGRILHYLKAKEYSHCAWTIVRVEILRNFYFINRLTGYLRN", "modifications": "non-glycosylated, E. coli-expressed", "notes": "biologic; biological agent that induces the production of specific immunoglobulins"}}, "key": {"[1]": {"conditions": "patients taking heparin"}}}
{"molecule": "OKT3: murine monoclonal antibody directed towards CD-3 domain of activated T-cells", "values": [{"measurement": "patients producing antibodies versus the therapy", "setting": "in clinical trials", "result": "20-40%"}]}
{"molecule": "heparin", "values": [{"measurement": "patients experiencing heparin induced thrombocytopenia (HIT)", "setting": "[1]", "result": "~3", "unit": "%"}]}
{"molecule": "Remicade®: biologic; biological agent that induces the production of specific immunoglobulins", "values": [{"measurement": "patients generating neutralizing antibodies", "setting": "patients taking the biologic", "result": 10, "unit": "%"}]}
{"molecule": "B1", "values": [{"measurement": "patients found to have serum-neutralizing activity", "setting": "patients taking the biologic", "result": 45, "unit": "%"}]}
